From patent US20030158083A1, “Method of effecting angiogenesis by modulating the function of a novel endothelia phosphatase” (The Procter & Gamble Company, priority 2002, published 2003)

What was measured:
[1] = Phosphatase activity with fluorogenic substrate DiFMUP; assay type: biochemical
Method: Purified, recombinant KAPh phosphatase domain (amino acids 83-464 SEQ ID NO 4) (100 μg/mL) and full-length PTEN (amino acids 1-403) (100 μg/mL) were each mixed with a fluorogenic phosphatase substrate 6,8-difluoro-4-methylumbelliferyl phosphate (DiFMUP) (Molecular Probes, Eugene, Oreg.) at a final concentration of a 100 μM in assay buffer (10 mM sodium acetate, pH 6.0, 150 mM NaCl, 5 mM DTT). Following incubation at ambient temperature for 15 or 60 min., the fluorescence intensity of the 6,8-difluoro-4-methylumbelliferone (DiFMU) product was measured in triplicate and used as an assessment of phosphatase activity. A Victor 5 microplate reader from Wallac (Turku, Finland) was used to read the fluorescence intensity from 384-well microplates (Corning Inc., Corning, N.Y.).

[2] = Peptide phosphatase assay (BIOMOL green); assay type: biochemical; settings: any peptide substrates examined; data not shown
[3] = target: T1, 6xHis-tagged KAPh full-length protein (expressed in HEK 293 cells from pcDNA4/HisMax) (Homo sapiens, UniProt Q63HR2 26-1409, limits assumed); experiment: GST pull-down from HEK 293 lysate, anti-HisG blot
T1 construct: Used as HEK 293 cell lysate; also called full-length KAPh; hexahistidine-tagged full-length KAPh
T1 sequence: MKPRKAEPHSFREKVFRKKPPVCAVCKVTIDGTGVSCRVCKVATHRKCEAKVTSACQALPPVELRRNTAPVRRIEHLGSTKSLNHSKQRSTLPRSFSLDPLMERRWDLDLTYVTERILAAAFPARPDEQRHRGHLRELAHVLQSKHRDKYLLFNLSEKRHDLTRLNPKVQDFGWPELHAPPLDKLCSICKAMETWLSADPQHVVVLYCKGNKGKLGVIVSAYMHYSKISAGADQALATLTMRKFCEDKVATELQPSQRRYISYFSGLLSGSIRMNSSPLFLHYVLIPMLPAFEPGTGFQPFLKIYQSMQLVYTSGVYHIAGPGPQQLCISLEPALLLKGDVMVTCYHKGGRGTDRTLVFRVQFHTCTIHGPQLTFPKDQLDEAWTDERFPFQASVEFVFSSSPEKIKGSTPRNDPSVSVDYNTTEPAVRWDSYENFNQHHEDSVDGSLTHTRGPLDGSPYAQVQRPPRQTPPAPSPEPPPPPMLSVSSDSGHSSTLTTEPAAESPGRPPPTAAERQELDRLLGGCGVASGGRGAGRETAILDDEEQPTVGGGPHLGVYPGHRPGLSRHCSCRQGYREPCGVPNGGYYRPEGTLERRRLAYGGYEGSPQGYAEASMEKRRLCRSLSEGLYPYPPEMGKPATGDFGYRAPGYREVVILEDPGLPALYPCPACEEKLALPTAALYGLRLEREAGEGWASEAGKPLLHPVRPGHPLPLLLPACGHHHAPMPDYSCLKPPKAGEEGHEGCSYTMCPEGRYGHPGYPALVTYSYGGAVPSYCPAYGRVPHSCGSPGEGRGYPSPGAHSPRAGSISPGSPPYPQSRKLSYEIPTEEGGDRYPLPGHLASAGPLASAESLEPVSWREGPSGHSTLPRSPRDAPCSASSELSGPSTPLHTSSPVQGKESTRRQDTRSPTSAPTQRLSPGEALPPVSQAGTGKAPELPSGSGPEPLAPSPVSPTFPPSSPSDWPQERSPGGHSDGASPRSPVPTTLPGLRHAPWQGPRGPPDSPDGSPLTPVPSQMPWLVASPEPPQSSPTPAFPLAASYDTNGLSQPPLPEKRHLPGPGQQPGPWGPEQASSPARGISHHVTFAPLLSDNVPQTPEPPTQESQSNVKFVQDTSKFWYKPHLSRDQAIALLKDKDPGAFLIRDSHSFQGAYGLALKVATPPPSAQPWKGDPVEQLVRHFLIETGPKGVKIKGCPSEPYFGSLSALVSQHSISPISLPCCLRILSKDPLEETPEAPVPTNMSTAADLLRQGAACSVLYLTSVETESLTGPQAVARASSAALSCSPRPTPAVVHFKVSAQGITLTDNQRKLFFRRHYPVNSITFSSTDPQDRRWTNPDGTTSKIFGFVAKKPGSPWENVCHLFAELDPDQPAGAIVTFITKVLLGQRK

[4] = target: T2, GST (baculovirus-expressed glutathione S-transferase alone) (UniProt P08515 1-218 = GST); experiment: GST pull-down from HEK 293 lysate, anti-HisG blot
T2 construct: Control; also called GST alone
T2 sequence (P08515 whole entry): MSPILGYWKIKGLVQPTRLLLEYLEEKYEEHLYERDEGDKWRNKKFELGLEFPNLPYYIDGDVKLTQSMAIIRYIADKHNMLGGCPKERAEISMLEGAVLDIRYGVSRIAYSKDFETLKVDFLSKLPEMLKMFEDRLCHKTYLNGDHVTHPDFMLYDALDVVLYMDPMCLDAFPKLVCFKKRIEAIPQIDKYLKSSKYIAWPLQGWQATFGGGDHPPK

With “PTEN: full-length PTEN (amino acids 1-403), tumor suppressor with phosphatase activity, used as comparator [reference compound]” the “fluorescent product (DiFMU) generated, fold over buffer control” value ([1]; 100 μg/mL protein, 100 μM DiFMUP, pH 6.0, ambient temperature, 60 min incubation) was 6 fold and the “phosphatase activity using peptide substrates” value [2] was “unable to detect significant, reproducible phosphatase activity”.

B1: GST Tie1 wild-type (GST fusion of the intracellular domain of human Tie1) (receptor, UniProt P35590 785-1138, looked up)
chain: CIRRSCLHRRRTFTYQSGSGEETILQFSSGTLTLTRRPKLQPEPLSYPVLEWEDITFEDLIGEGNFGQVIRAMIKKDGLKMNAAIKMLKEYASENDHRDFAGELEVLCKLGHHPNIINLLGACKNRGYLYIAIEYAPYGNLLDFLRKSRVLETDPAFAREHGTASTLSSRQLLRFASDAANGMQYLSEKQFIHRDLAARNVLVGENLASKIADFGLSRGEEVYVKKTMGRLPVRWMAIESLNYSVYTTKSDVWSFGVLLWEIVSLGGTPYCGMTCAELYEKLPQGYRMEQPRNCDDEVYELMRQCWRDRPYERPPFAQIALQLGRMLEARKAYVNMSLFENFTYAGIDATAEEA
modifications: some degree of tyrosine phosphorylation after in vitro autophosphorylation; sites not listed
notes: domain: intracellular domain; also called Tie1 kinase; not shown: glutathione S-transferase (GST) encoded by the pAcGHLT baculovirus transfer vector (Pharmingen); in-frame fusion, linker
B1: no binding [3].

B2: GST Tie2 wild-type (GST fusion of the intracellular domain of human Tie2/TEK) (receptor, UniProt Q02763 770-1124, looked up)
chain: LQLKRANVQRRMAQAFQNVREEPAVQFNSGTLALNRKVKNNPDPTIYPVLDWNDIKFQDVIGEGNFGQVLKARIKKDGLRMDAAIKRMKEYASKDDHRDFAGELEVLCKLGHHPNIINLLGACEHRGYLYLAIEYAPHGNLLDFLRKSRVLETDPAFAIANSTASTLSSQQLLHFAADVARGMDYLSQKQFIHRDLAARNILVGENYVAKIADFGLSRGQEVYVKKTMGRLPVRWMAIESLNYSVYTTNSDVWSYGVLLWEIVSLGGTPYCGMTCAELYEKLPQGYRLEKPLNCDDEVYDLMRQCWREKPYERPSFAQILVSLNRMLEERKTYVNTTLYEKFTYAGIDCSAEEAA
modifications: some degree of tyrosine phosphorylation after in vitro autophosphorylation; sites not listed
notes: domain: intracellular domain; also called Tie2 kinase; not shown: glutathione S-transferase (GST) encoded by the pAcGHLT baculovirus transfer vector (Pharmingen); in-frame fusion, linker
B2: no binding [3].

B3: 6xHis-tagged KAPh SH2 domain (expressed in HEK 293 cells from pcDNA4/HisMax) (other, not shown: small tags and cut ends)
chain: WYKPHLSRDQAIALLKDKDPGAFLIRDSHSFQGAYGLALKVATPPPSAQPWKGDPVEQLVRHFLIETGPKGVKIKGCPSEPYFGSLSALVSQHSISPISLPCCLRILS
notes: Used as HEK 293 cell lysate; also called hexahistidine-tagged KAPh SH2 domain; KAPh SH2 domain-containing protein fragment
B3: no binding [4].

B4: KAPh phosphatase domain: purified, recombinant KAPh phosphatase domain (amino acids 83-464 SEQ ID NO 4) (protein, listed as Homo sapiens)
chain: LNHSKQRSTLPRSFSLDPLMERRWDLDLTYVTERILAAAFPARPDEQRHRGHLRELAHVLQSKHRDKYLLFNLSEKRHDLTRLNPKVQDFGWPELHAPPLDKLCSICKAMETWLSADPQHVVVLYCKGNKGKLGVIVSAYMHYSKISAGADQALATLTMRKFCEDKVATELQPSQRRYISYFSGLLSGSIRMNSSPLFLHYVLIPMLPAFEPGTGFQPFLKIYQSMQLVYTSGVYHIAGPGPQQLCISLEPALLLKGDVMVTCYHKGGRGTDRTLVFRVQFHTCTIHGPQLTFPKDQLDEAWTDERFPFQASVEFVFSSSPEKIKGSTPRNDPSVSVDYNTTEPAVRWDSYENFNQHHEDSVDGSLTHTRGPLDGSPYAQVQ
For B4, the “phosphatase activity over time” value ([1]; 15 or 60 min incubation with DiFMUP) was “time-dependent increase in phosphatase activity”.
